The record followed here is patent publication US20030086932A1.

The target of assay [1] is murine CTLA-4 on murine T cells (murine) (UniProt P09793). Briefly: cell-based or functional assay.
Assay [2] has as its target murine CD28 on murine T cells (murine) (UniProt P31041). Briefly: cell-based or functional assay.
Sequence of UniProt P31041 (P31041 20-218): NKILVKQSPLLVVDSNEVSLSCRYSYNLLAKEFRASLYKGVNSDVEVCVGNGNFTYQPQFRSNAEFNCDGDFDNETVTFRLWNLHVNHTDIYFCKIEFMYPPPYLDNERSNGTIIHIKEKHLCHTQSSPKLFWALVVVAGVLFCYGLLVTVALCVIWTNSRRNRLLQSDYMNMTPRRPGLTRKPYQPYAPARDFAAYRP

Sequence of UniProt P09793 (P09793 36-223): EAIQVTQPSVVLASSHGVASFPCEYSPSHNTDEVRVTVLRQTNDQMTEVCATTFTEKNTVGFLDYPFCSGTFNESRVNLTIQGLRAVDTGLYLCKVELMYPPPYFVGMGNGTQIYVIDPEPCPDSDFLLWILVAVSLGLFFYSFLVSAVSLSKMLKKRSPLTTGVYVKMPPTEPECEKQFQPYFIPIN

“mem4F10scFv (surface-linked anti-murine CTLA-4 scFv derived from hamster mAb UC10-4F10, anchored by a murine B7-1 derived motif, expressed on transiently transfected 293 cells) (from UniProt Q00609 247-302)”: in assay [1], the reduction in IL-2 production of pre-activated T cells, with combined mem2C11 and memPVIscFvs came to 69%; the reduction in IL-2 production of pre-activated T cells, with mem2C11 scFv alone turned out to be 67%; the reduction in intensity of the tyrosine-phosphorylated LAT band (photodensitometry, against control scFv) stood at 35%; the reduction in intensity of the tyrosine-phosphorylated p23 TCR band (photodensitometry, against control scFv) came out at 85%. Moreover, in assay [1], the reduction in proliferation of pre-activated T cells, with combined mem2C11 and memPVIscFvs amounted to 66%; the reduction in proliferation of pre-activated T cells, with mem2C11 scFv alone was 80%.

“memPVIscFv (surface-linked anti-murine CD28 scFv derived from hamster mAb PV-1, GPI anchored, expressed on transiently transfected 293 cells)” showed a proliferation and cytokine production of pre-activated T cells (increase over mem2C11scFv alone) in assay [2] of 10 fold.
